The supplement of paper PMC9112550, “Optimization of the antimicrobial peptide Bac7 by deep mutational scanning” (BMC Biology, 2022)

Tested on: Escherichia coli TOP10
Assay: shrunken log2 fold change of peptide-encoding DNA abundance (4.5 h post-induction vs induction); higher = less antimicrobial activity (less host growth inhibition)
Conditions: time post-induction: 4.5 h; library: site-saturation at positions 5, 18, 19, 20
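Further: peptides expressed intracellularly from a pBAD plasmid library in pooled LB shake-flask culture, induced with 0.3% L-arabinose, DNA abundance read by NGS, three biological replicates, DESeq2 with apeglm shrinkage.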

Row | Sequence | shrunken log2 fold change
1 | RRIRFRPPRLPRPRPRPLSNPRP | -0.504
2 | RRIRFRPPRLPRPRPRPLTFPRP | -0.391
3 | RRIRFRPPRLPRPRPRPLTVPRP | -0.73
4 | RRIRFRPPRLPRPRPRPLVQPRP | -0.052
5 | RRIRFRPPRLPRPRPRPLVTPRP | -0.318
6 | RRIRFRPPRLPRPRPRPLWVPRP | 0.0127
7 | RRIRFRPPRLPRPRPRPMCAPRP | 0.253
8 | RRIRFRPPRLPRPRPRPMCCPRP | -0.429
9 | RRIRFRPPRLPRPRPRPMCEPRP | -0.236
10 | RRIRFRPPRLPRPRPRPMCKPRP | -0.169
11 | RRIRFRPPRLPRPRPRPMDMPRP | 0.0169
12 | RRIRFRPPRLPRPRPRPMGQPRP | -0.0471
13 | RRIRFRPPRLPRPRPRPMGVPRP | -0.457
14 | RRIRFRPPRLPRPRPRPMHYPRP | -0.0476
15 | RRIRFRPPRLPRPRPRPMKEPRP | -0.187
16 | RRIRFRPPRLPRPRPRPMKNPRP | -0.0862
17 | RRIRFRPPRLPRPRPRPMKYPRP | -0.664
18 | RRIRFRPPRLPRPRPRPMLYPRP | -0.567
19 | RRIRFRPPRLPRPRPRPMMTPRP | 0.022
20 | RRIRFRPPRLPRPRPRPMPRPRP | 0.513
21 | RRIRFRPPRLPRPRPRPMQYPRP | -0.683
22 | RRIRFRPPRLPRPRPRPMSFPRP | -0.193
23 | RRIRFRPPRLPRPRPRPMSKPRP | -0.0951
24 | RRIRFRPPRLPRPRPRPMSNPRP | 0.0556
25 | RRIRFRPPRLPRPRPRPMVFPRP | -0.0469

Row | Sequence | shrunken log2 fold change
26 | RRIRFRPPRLPRPRPRPMVQPRP | -0.106
27 | RRIRFRPPRLPRPRPRPMWRPRP | -0.0033
28 | RRIRFRPPRLPRPRPRPMYEPRP | -0.309
29 | RRIRFRPPRLPRPRPRPMYKPRP | -0.662
30 | RRIRFRPPRLPRPRPRPMYPPRP | -0.249
31 | RRIRFRPPRLPRPRPRPMYTPRP | -0.00812
32 | RRIRFRPPRLPRPRPRPNCEPRP | 0.194
33 | RRIRFRPPRLPRPRPRPNCKPRP | -0.0929
34 | RRIRFRPPRLPRPRPRPNCPPRP | 0.0451
35 | RRIRFRPPRLPRPRPRPNDGPRP | -0.222
36 | RRIRFRPPRLPRPRPRPNFHPRP | -0.218
37 | RRIRFRPPRLPRPRPRPNFIPRP | -0.308
38 | RRIRFRPPRLPRPRPRPNGAPRP | -0.105
39 | RRIRFRPPRLPRPRPRPNGGPRP | 0.000932
40 | RRIRFRPPRLPRPRPRPNHEPRP | -0.56
41 | RRIRFRPPRLPRPRPRPNHRPRP | -0.306
42 | RRIRFRPPRLPRPRPRPNHWPRP | -0.131
43 | RRIRFRPPRLPRPRPRPNIEPRP | -0.288
44 | RRIRFRPPRLPRPRPRPNKGPRP | -0.606
45 | RRIRFRPPRLPRPRPRPNLTPRP | -0.347
46 | RRIRFRPPRLPRPRPRPNMCPRP | -0.54
47 | RRIRFRPPRLPRPRPRPNNDPRP | -0.673
48 | RRIRFRPPRLPRPRPRPNQHPRP | -0.275
49 | RRIRFRPPRLPRPRPRPNRPPRP | -0.0705
50 | RRIRFRPPRLPRPRPRPNSEPRP | -0.406

Row | Sequence | shrunken log2 fold change
51 | RRIRFRPPRLPRPRPRPNSIPRP | -0.216
52 | RRIRFRPPRLPRPRPRPNSVPRP | -0.0912
53 | RRIRFRPPRLPRPRPRPNTFPRP | -0.559
54 | RRIRFRPPRLPRPRPRPNVLPRP | -0.323
55 | RRIRFRPPRLPRPRPRPNVMPRP | -0.166
56 | RRIRFRPPRLPRPRPRPNWAPRP | 0.00252
57 | RRIRFRPPRLPRPRPRPPCVPRP | 0.0878
58 | RRIRFRPPRLPRPRPRPPCWPRP | 0.478
59 | RRIRFRPPRLPRPRPRPPEYPRP | -0.0154
60 | RRIRFRPPRLPRPRPRPPFIPRP | -0.236
61 | RRIRFRPPRLPRPRPRPPFMPRP | 0.0431
62 | RRIRFRPPRLPRPRPRPPIGPRP | -0.229
63 | RRIRFRPPRLPRPRPRPPIRPRP | -0.0123
64 | RRIRFRPPRLPRPRPRPPKEPRP | 0.0652
65 | RRIRFRPPRLPRPRPRPPKPPRP | 0.47
66 | RRIRFRPPRLPRPRPRPPKWPRP | 0.286
67 | RRIRFRPPRLPRPRPRPPKYPRP | -0.0263
68 | RRIRFRPPRLPRPRPRPPLGPRP | 1.33
69 | RRIRFRPPRLPRPRPRPPRMPRP | 0.332
70 | RRIRFRPPRLPRPRPRPPRWPRP | 0.659
71 | RRIRFRPPRLPRPRPRPPSHPRP | 0.123
72 | RRIRFRPPRLPRPRPRPPSIPRP | -0.0341
73 | RRIRFRPPRLPRPRPRPPSSPRP | 0.208
74 | RRIRFRPPRLPRPRPRPPTCPRP | 0.186
75 | RRIRFRPPRLPRPRPRPPTQPRP | 0.327
